pKd: −log10 of the molar value.
Tests used:
full-length (FL) UBQLN2 = full-length (FL) UBQLN2 (UniProt Q9UHD9); test: NMR titration
[1] = molecular target: fluorescently labeled K48-Ub4 (S20C on the most distal Ub, Alexa Fluor 488) (UniProt P0CG48); test: fluorescence polarisation

| Substance | pKd (full-length (FL) UBQLN2) | pKd [1] |
| --- | --- | --- |
| ubiquitin (Ub) (from UniProt P0CG48 1-76) (natural protein; other documents disagree on this pair) | 5.52 |  |
| UBQLN2 450-624 (from UniProt Q9UHD9 450-624) (domain or fragment) |  | 5.57 |

From doi:10.1101/2021.11.12.467822
